PMC5282582
Blank lines part the entries; values can stand above or below the substance they belong to.

Columns and labels:
Test in all cases: SEC-MALS; 100 μl of purified protein injected at 12 mg/ml (high concentration); Superdex 200 10/300 GL, room temperature, 10 mM HEPES pH 7.4, 200 mM NaCl, 5 mM β-ME, 0.4 ml/min
[1] = biological target: αγ heterodimer of human NAD-dependent isocitrate dehydrogenase (human) (UniProt P50213)
[2] = biological target: αβ heterodimer of human NAD-dependent isocitrate dehydrogenase (human) (UniProt P50213)
[3] = biological target: mutant α_(Y126F)β heterodimer of human NAD-dependent isocitrate dehydrogenase (human) (UniProt P50213)
[4] = biological target: mutant α_(Y126F)γ heterodimer of human NAD-dependent isocitrate dehydrogenase (human) (UniProt P50213)

Chain of mutant α_(Y126F)β heterodimer of human NAD-dependent isocitrate dehydrogenase (P50213 whole entry, looked up, stated change not applied, one chain of several): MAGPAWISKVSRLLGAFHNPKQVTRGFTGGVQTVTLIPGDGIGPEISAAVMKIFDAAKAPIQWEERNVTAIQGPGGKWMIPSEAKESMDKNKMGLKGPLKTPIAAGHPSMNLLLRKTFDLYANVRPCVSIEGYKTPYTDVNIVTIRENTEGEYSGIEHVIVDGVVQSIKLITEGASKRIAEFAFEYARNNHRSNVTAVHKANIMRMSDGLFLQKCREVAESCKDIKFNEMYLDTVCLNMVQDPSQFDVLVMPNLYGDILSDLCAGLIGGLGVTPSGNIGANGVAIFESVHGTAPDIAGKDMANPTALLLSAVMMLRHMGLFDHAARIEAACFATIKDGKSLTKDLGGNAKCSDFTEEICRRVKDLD
Chain of αβ heterodimer of human NAD-dependent isocitrate dehydrogenase (P50213 whole entry, looked up, one chain of several): as the sequence (P50213 whole entry, looked up, stated change not applied, one chain of several) above

stoichiometry N [1]: 2
Substance: αγ heterodimer of human NAD-dependent isocitrate dehydrogenase (from UniProt P50213 28-366; P51553 40-393) (complex)

stoichiometry N [2]: 2
Substance: αβ heterodimer of human NAD-dependent isocitrate dehydrogenase (from UniProt P50213 28-366) (complex)

stoichiometry N [3]: 2
Substance: mutant α_(Y126F)β heterodimer of human NAD-dependent isocitrate dehydrogenase (from UniProt P50213 55-366) (complex)

stoichiometry N [4]: 2
Substance: mutant α_(Y126F)γ heterodimer of human NAD-dependent isocitrate dehydrogenase (from UniProt P50213 55-366; P51553 40-393) (complex)
